Target: T1, MBP-N-intein fusion protein (Synechocystis sp., UniProt P74750)
T1 construct: made in house; host or cells: E. coli BL21(DE3)pLysS+
Test: in solution trans-splicing activity of photocaged C-intein polypeptides with MBP-N-intein fusion protein
Format: biochemical, Synechocystis sp. PCC6803
Settings: for trans-splicing activity relative to the non-photocaged C-intein polypeptide: % of the trans-splicing activity of the non-photocaged C-intein polypeptide, SDS-PAGE analysis
Experimental: In-vitro protein trans-splicing was characterized as follows. Each purified C-intein polypeptide was combined with MBP-N-intein fusion protein in splicing buffer (0.5 mM EDTA, 1 mM TCEP, 50 mM sodium phosphate, 150-500 mM NaCl at pH 7). The concentration of the two proteins was typically in the range 0.1-200 μM. The mixture was allowed to react at 4° C. for 12-16 h. The reaction was then quenched by dilution into SDS-PAGE loading buffer containing 20% v/v 2-mercaptoethanol before the SDS-PAGE analysis. The spliced product was purified using HPLC and characterized by ES-MS as the trans-spliced product. The expected mass (average isotopic composition)=43988.0 Da; measured mass=43986±10 Da.
The in solution trans-splicing activity of each photocaged C-intein polypeptide was assayed using the MBP-N-intein fusion protein expressed as described above.

Substance	trans-splicing activity relative to the non-photocaged C-intein polypeptide	ability to promote trans-splicing (in words) (with MBP-N-intein fusion protein, data not shown)
C-intein polypeptide with caged Gly19: DnaE C-intein polypeptide SEQ ID NO:6 with PEGylated thiol linker, photocaged (nitroveratryl) at Gly19	about 30%	
C-intein polypeptide with caged Gly11: DnaE C-intein polypeptide SEQ ID NO:6 with PEGylated thiol linker, photocaged (nitroveratryl) at Gly11	around 60%	
C-intein polypeptide with two caged residues, Gly19 and Gly31: DnaE C-intein polypeptide SEQ ID NO:6 with PEGylated thiol linker, photocaged (nitroveratryl) at both Gly19 and Gly31		completely prevent trans-splicing activity
C-intein polypeptide with caged Gly6: DnaE C-intein polypeptide SEQ ID NO:6 with PEGylated thiol linker, photocaged (nitroveratryl) at Gly6	about 30%	

— patent US7972827B2, “Photoswitchable method for the ordered attachment of proteins to surfaces” (Lawrence Livermore National Security, LLC, priority 2003, dated 2011)
